Tests used:
[1] = biological target: mouse sFlt-1-Fc (mouse) (UniProt P35969); test: ELISA
[2] = biological target: VEGFR-2 (Homo sapiens) (UniProt P35968); details: cited from earlier work
UniProt P35968, sequence (P35968 20-1356): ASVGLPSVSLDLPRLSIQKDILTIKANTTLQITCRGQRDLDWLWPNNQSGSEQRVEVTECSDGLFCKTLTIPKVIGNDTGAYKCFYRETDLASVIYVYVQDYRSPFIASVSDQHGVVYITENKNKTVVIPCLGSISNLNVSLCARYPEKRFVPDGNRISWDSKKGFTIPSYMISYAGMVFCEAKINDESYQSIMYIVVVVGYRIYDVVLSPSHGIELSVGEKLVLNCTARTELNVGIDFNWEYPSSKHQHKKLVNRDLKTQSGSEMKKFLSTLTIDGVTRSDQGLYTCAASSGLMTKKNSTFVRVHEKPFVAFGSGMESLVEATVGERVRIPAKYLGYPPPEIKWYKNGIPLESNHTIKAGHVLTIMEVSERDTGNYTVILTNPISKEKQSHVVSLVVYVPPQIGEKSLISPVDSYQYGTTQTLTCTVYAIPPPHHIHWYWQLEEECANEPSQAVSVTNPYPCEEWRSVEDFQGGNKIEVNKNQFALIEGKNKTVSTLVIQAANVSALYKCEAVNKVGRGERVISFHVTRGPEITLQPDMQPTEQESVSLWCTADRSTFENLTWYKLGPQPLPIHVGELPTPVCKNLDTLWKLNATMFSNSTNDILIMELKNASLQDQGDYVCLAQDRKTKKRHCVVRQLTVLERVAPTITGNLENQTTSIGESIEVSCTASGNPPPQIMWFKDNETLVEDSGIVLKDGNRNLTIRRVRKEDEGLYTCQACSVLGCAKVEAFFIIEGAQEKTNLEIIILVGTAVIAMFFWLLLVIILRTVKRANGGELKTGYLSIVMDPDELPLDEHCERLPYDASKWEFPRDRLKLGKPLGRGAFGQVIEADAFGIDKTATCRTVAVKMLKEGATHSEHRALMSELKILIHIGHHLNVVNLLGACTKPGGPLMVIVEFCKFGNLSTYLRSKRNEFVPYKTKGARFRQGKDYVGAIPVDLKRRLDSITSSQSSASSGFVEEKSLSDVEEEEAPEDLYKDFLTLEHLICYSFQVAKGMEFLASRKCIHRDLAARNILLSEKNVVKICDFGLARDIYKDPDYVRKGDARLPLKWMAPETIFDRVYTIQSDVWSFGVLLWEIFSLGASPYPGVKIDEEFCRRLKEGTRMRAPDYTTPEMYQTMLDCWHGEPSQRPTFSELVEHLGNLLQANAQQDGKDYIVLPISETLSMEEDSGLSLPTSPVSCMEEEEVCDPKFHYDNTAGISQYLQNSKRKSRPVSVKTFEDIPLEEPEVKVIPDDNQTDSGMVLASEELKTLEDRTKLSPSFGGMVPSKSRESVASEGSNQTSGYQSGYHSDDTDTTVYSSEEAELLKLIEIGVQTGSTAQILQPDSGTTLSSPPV

UniProt P35969, sequence (P35969 23-758): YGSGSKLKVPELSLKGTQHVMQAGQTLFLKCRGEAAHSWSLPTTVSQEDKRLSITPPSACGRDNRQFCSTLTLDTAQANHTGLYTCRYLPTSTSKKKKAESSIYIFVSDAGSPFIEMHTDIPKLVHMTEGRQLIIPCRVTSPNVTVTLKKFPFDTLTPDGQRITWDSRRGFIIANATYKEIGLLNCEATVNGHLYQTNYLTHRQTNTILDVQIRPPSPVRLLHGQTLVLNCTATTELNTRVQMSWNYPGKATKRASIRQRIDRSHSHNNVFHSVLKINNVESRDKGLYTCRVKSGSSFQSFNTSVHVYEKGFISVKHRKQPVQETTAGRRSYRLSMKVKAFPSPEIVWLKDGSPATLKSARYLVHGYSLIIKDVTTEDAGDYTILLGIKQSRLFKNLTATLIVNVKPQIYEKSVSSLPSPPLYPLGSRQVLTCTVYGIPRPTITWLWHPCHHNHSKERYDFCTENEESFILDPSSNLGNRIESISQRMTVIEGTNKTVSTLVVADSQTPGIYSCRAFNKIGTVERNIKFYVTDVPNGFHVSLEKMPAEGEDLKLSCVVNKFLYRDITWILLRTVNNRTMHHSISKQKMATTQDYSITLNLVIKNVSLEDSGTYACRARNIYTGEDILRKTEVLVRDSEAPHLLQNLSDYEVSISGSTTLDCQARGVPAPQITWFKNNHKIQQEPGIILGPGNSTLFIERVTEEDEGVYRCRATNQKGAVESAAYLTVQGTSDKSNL

**Q.** For VEGF165 (ligand), which percent decrease of ELISA-detectable sFlt-1 when VEGF was co-expressed [1] is on record?
**A.** Its percent decrease of ELISA-detectable sFlt-1 when VEGF was co-expressed is 70 to 80%.

**Q.** What about the percent decrease of free sFlt-1 in plasma of co-treated mice [1] of the same substance?
**A.** Its percent decrease of free sFlt-1 in plasma of co-treated mice is > 70%.

**Q.** Which Kd [2] does the source give for VEGF (from UniProt P15692) here?
**A.** The Kd was 0.76 nM.

From PMC3829045
